Results on 46 molecules are retold here after patent US20170056486A1.

Some results are limits rather than exact numbers.

The first test addresses HLA-A*24 (human). The experiment in a line: UV-exchange ELISA (anti-b2m); yield <20%.
Molecule TYKDYVDLF displayed a peptide exchange yield of less than 20%.

The target of another test is HLA-A*24 (human). Put plainly: UV-exchange ELISA (anti-b2m); yield >=75%.
For NYGVLHVTF, the peptide exchange yield was greater than 75%. For VYTGIDHHW, the peptide exchange yield is greater than 75%.

As to QYLDVLHAL, the peptide exchange yield was greater than 75%.

Regarding TYNPNLQDKL, the peptide exchange yield is greater than 75%. VYPHFSTTNLI gave a peptide exchange yield greater than 75%.

In turn, VFIAQGYTL showed a peptide exchange yield greater than 75%.

Take KYGDFKLLEF: the peptide exchange yield was greater than 75%. On to SYQVIFQHF, for which the peptide exchange yield was greater than 75%.

The molecule AYKSEVVYF had a peptide exchange yield greater than 75%. The molecule NYMPGQLTI had a peptide exchange yield greater than 75%.

On to TYIDTRTVF, for which the peptide exchange yield was greater than 75%. Same read-out and setting: the figure for EYLQNLNHI is greater than 75%; for RYVFPLPYL it is greater than 75%. KQLDIANYELF displayed a peptide exchange yield greater than 75%.

Take KYGTLDVTF: the peptide exchange yield was greater than 75%. In turn, KFDDVTMLF came in with a peptide exchange yield greater than 75%. Consider FFHEGQYVF, for which the peptide exchange yield was greater than 75%. For KYTHFIQSF, the peptide exchange yield is greater than 75%. Regarding FYPQIINTF, the peptide exchange yield is greater than 75%. In the case of NYENKQYLF, the peptide exchange yield is greater than 75%. On to VFIDHPVHL, for which the peptide exchange yield is greater than 75%.

SYGTILSHI: the peptide exchange yield is greater than 75%.

As for KYSDVKNLI, the peptide exchange yield was greater than 75%. On to QFITSTNTF, for which the peptide exchange yield was greater than 75%.

A further test deals with HLA-A*24 (human). Put plainly: UV-exchange ELISA (anti-b2m); yield 20%-49%. On the technique in general: An ELISA detects its analyte on a solid surface through an enzyme-linked reagent.
In turn, DYVGFTLKI returned a peptide exchange yield of 20 to 49%.

KYTSYILAF showed a peptide exchange yield of 20 to 49%. For MYLKLVQLF, the peptide exchange yield lay within 20 to 49%. In turn, KYPDIASPTF returned a peptide exchange yield of 20 to 49%.

As for SFLNIEKTEILF, the peptide exchange yield lay in the range of 20 to 49%. VYPDTVALTF registered a peptide exchange yield of 20 to 49%.

Consider KFFDDLGDELLF, for which the peptide exchange yield was 20 to 49%. Take SYAPPSEDLF: the peptide exchange yield was in the range of 20 to 49%. SYAPPSEDLFL gave a peptide exchange yield of 20 to 49%. The molecule VFLPRVTEL yielded a peptide exchange yield of 20 to 49%. In the case of VYTPVLEHL, the peptide exchange yield lay in the range of 20 to 49%. Same read-out and setting: in the case of SYVASFFLL it was 20 to 49%; in that of VYNAVSTSF, 20 to 49%.

Consider AYSHLRYVF, for which the peptide exchange yield fell in the range of 20 to 49%.

Molecule LYQDHMQYI had a peptide exchange yield of 20 to 49%.

As to IFITKALQI, the peptide exchange yield lay within 20 to 49%. In turn, YFIKSPPSQLF returned a peptide exchange yield of 20 to 49%. Turning to SYAELGTTI, the peptide exchange yield lay within 20 to 49%.

In turn, KYLSVQLTL displayed a peptide exchange yield of 20 to 49%. As to VYNYAEQTL, the peptide exchange yield lay within 20 to 49%. KYYRQTLLF yielded a peptide exchange yield of 20 to 49%.
